Assay results from article PMC3317646, “Interaction of Chandipura Virus N and P Proteins: Identification of Two Mutually Exclusive Domains of N Involved in Interaction with P” (PLoS ONE, 2012).
Read-outs that look alike come from different tables or passages of the source.

T1: N-terminal six histidine tagged P protein of Chandipura virus (His-P) (Chandipura virus, UniProt P16380 1-293)
T1 construct: Chandipura virus phosphoprotein P, full length (pET20b-P); pET20b usually adds a C-terminal His tag (surmise); also called 6×His-P; pET20b-P; source: bacterially expressed, purified (Ni-NTA agarose); not shown: His6, N-terminal, kept
T1 sequence: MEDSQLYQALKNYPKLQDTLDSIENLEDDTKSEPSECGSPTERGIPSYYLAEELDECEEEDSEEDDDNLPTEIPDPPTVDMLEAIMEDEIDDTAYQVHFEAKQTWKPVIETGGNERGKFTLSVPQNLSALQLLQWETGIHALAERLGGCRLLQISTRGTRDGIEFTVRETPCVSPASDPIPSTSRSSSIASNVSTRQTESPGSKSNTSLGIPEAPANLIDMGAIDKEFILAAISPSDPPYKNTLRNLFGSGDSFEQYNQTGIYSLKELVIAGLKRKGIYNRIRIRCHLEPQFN

B1: N(1/180–265/422), bacterially expressed (domain or fragment)
chain: MSSQVFCISTGQTVSVCLPANEDPVEFPGAFFTPNAKKPTVYIKKETDLSLLRSHVYDGIKDGSVTVSQINSYLYMVLKDIREKPDKNWTSFGVELGKKNEPMGIFDLLNVEDVKGKELDKKGQDTRLPGDDLWLPTLIFGLYRVSRATQVEYKKTLMTNLYAQCKLRTKDAEEIVDETAPGQEIDQADSYMPYLIDMGLSTKSPYSSTKNPSFHFWGQLTAFLVKSARAKNALVPVDIAYHELTTAALLFAYAIGRSSELEQRFVLNGKKFTKEKDSREDNDTTPPSERNVVVWLAWWEDIKHEITPDMKAFAKRAVERVGDIRVNSVAEYARKLFA
notes: also called middle deletant; source: E. coli BL21(DE3) or BL21(DE3)pLysS, purified (anion exchange, MonoQ 5/50 GL)
B2: Chandipura virus nucleocapsid protein (N), wild-type, untagged, bacterially expressed (natural protein)
chain: MSSQVFCISTGQTVSVCLPANEDPVEFPGAFFTPNAKKPTVYIKKETDLSLLRSHVYDGIKDGSVTVSQINSYLYMVLKDIREKPDKNWTSFGVELGKKNEPMGIFDLLNVEDVKGKELDKKGQDTRLPGDDLWLPTLIFGLYRVSRATQVEYKKTLMTNLYAQCKLRTKDAEEIVDETAEFFNAWANDSNFTKIVAAVDMYFHHFKKSDHAPIRFGTIVSRFKDCAALSTLSHLQKVTGLPIEEVFTWVFNKSVQDDLLRMMTPGQEIDQADSYMPYLIDMGLSTKSPYSSTKNPSFHFWGQLTAFLVKSARAKNALVPVDIAYHELTTAALLFAYAIGRSSELEQRFVLNGKKFTKEKDSREDNDTTPPSERNVVVWLAWWEDIKHEITPDMKAFAKRAVERVGDIRVNSVAEYARKLFA
notes: Chandipura virus nucleocapsid protein N, full-length untagged (pET3a-NC); Oligomeric (nucleocapsid-like rings) as purified; monomeric after 1% DOC; also called CHPV N; wild-type N
B3: N(1–320), bacterially expressed (domain or fragment)
chain: MSSQVFCISTGQTVSVCLPANEDPVEFPGAFFTPNAKKPTVYIKKETDLSLLRSHVYDGIKDGSVTVSQINSYLYMVLKDIREKPDKNWTSFGVELGKKNEPMGIFDLLNVEDVKGKELDKKGQDTRLPGDDLWLPTLIFGLYRVSRATQVEYKKTLMTNLYAQCKLRTKDAEEIVDETAEFFNAWANDSNFTKIVAAVDMYFHHFKKSDHAPIRFGTIVSRFKDCAALSTLSHLQKVTGLPIEEVFTWVFNKSVQDDLLRMMTPGQEIDQADSYMPYLIDMGLSTKSPYSSTKNPSFHFWGQLTAFLVKSARAKNALVP
notes: Chandipura virus nucleocapsid protein N, residues 1-320; also called N(1–320)^0 (monomer after DOC treatment); source: E. coli BL21(DE3) or BL21(DE3)pLysS, purified (anion exchange, MonoQ 5/50 GL)
B4: N(1–220), bacterially expressed (domain or fragment)
chain: MSSQVFCISTGQTVSVCLPANEDPVEFPGAFFTPNAKKPTVYIKKETDLSLLRSHVYDGIKDGSVTVSQINSYLYMVLKDIREKPDKNWTSFGVELGKKNEPMGIFDLLNVEDVKGKELDKKGQDTRLPGDDLWLPTLIFGLYRVSRATQVEYKKTLMTNLYAQCKLRTKDAEEIVDETAEFFNAWANDSNFTKIVAAVDMYFHHFKKSDHAPIRFGTIV
notes: Chandipura virus nucleocapsid protein N, residues 1-220; source: E. coli BL21(DE3) or BL21(DE3)pLysS, purified (anion exchange, MonoQ 5/50 GL)
B5: Chandipura virus phosphoprotein (P), wild-type, untagged, bacterially expressed (natural protein)
chain: T1 sequence
notes: Chandipura virus phosphoprotein P, wild-type (pET3a-P); also called CHPV P; pET3a-P; source: bacterially expressed, purified (Q-Sepharose anion exchange)
B6: N(22–422), bacterially expressed (domain or fragment)
chain: EDPVEFPGAFFTPNAKKPTVYIKKETDLSLLRSHVYDGIKDGSVTVSQINSYLYMVLKDIREKPDKNWTSFGVELGKKNEPMGIFDLLNVEDVKGKELDKKGQDTRLPGDDLWLPTLIFGLYRVSRATQVEYKKTLMTNLYAQCKLRTKDAEEIVDETAEFFNAWANDSNFTKIVAAVDMYFHHFKKSDHAPIRFGTIVSRFKDCAALSTLSHLQKVTGLPIEEVFTWVFNKSVQDDLLRMMTPGQEIDQADSYMPYLIDMGLSTKSPYSSTKNPSFHFWGQLTAFLVKSARAKNALVPVDIAYHELTTAALLFAYAIGRSSELEQRFVLNGKKFTKEKDSREDNDTTPPSERNVVVWLAWWEDIKHEITPDMKAFAKRAVERVGDIRVNSVAEYARKLFA
notes: source: E. coli BL21(DE3) or BL21(DE3)pLysS, purified (anion exchange, MonoQ 5/50 GL)
B7: N(1–47), bacterially expressed (domain or fragment)
chain: MSSQVFCISTGQTVSVCLPANEDPVEFPGAFFTPNAKKPTVYIKKET
notes: Chandipura virus nucleocapsid protein N, residues 1-47; source: E. coli BL21(DE3) or BL21(DE3)pLysS, purified (anion exchange, MonoQ 5/50 GL)
B8: N(1–390), bacterially expressed (domain or fragment)
chain: MSSQVFCISTGQTVSVCLPANEDPVEFPGAFFTPNAKKPTVYIKKETDLSLLRSHVYDGIKDGSVTVSQINSYLYMVLKDIREKPDKNWTSFGVELGKKNEPMGIFDLLNVEDVKGKELDKKGQDTRLPGDDLWLPTLIFGLYRVSRATQVEYKKTLMTNLYAQCKLRTKDAEEIVDETAEFFNAWANDSNFTKIVAAVDMYFHHFKKSDHAPIRFGTIVSRFKDCAALSTLSHLQKVTGLPIEEVFTWVFNKSVQDDLLRMMTPGQEIDQADSYMPYLIDMGLSTKSPYSSTKNPSFHFWGQLTAFLVKSARAKNALVPVDIAYHELTTAALLFAYAIGRSSELEQRFVLNGKKFTKEKDSREDNDTTPPSERNVVVWLAWWEDIKHEI
notes: Chandipura virus nucleocapsid protein N, residues 1-390; source: E. coli BL21(DE3) or BL21(DE3)pLysS, purified (anion exchange, MonoQ 5/50 GL)

Experiments:
[1] = biological target: the molecule itself; assay: SEC; each purified protein alone on Superdex-200 / S-200 (10/300), 100 mM NaCl TET buffer; oligomerization status from the elution volume
[2] = biological target: the molecule itself; assay: as above; remark: listed apart in the source
[3] = biological target: B5; assay: SEC; equimolar N (or N(1–320)) and P incubated 30 min at 4°C in 100 mM NaCl TET buffer, no DOC treatment (N oligomeric); S-200 (10/300); ratio by densitometry of bands; conditions: both partners purified
[4] = biological target: B5; assay: SEC; N (or N(1–320)) pre-treated with 1% DOC for 30 min, then DOC removed by overnight dialysis against 100 mM NaCl TET buffer with or without equimolar P; S-200 (10/300); ratio by densitometry of bands; conditions: both partners purified
[5] = biological target: T1, N-terminal six histidine tagged P …; assay: pull-down; His-tag co-elution after 1% DOC treatment of the N variants and dialysis against the binding buffer in presence of His-P (N variants monomeric); Ni-NTA agarose, eluted with 250 mM imidazole; conditions: both partners purified

Binder | stoichiometry N [1] | stoichiometry N [2] | further results
B1 | 3 | 2 | –
B2 | – | ~10 | stoichiometry N [3]: 2 N:P (molar ratio)
B3 | 8 | – | stoichiometry N [4]: 1 N(1–320):P
B4 | 4 | – | binding result [5]: binds
B5 | – | 2 | –
B6 | 8 | – | –
B7 | 3 | – | –
B8 | 8 | – | –
